{"source": "patent US11312773B2", "about": "“Anti-PD-L1 antibody” (Fuso Pharmaceutical Industries, Ltd., priority 2016, dated 2022)", "molecules": {"B1": {"name": "4G12: rat anti-bovine PD-L1 monoclonal antibody; VL SEQ ID NO: 1, VH SEQ ID NO: 2 (antibody, listed as Rattus norvegicus, V domains shown)", "VH": "MGWSQIILFLVAAATCVHSQVQLQQSGAELVKPGSSVKISCKASGYTFTSNFMHWVKQQPGNGLEWIGWIYPEYGNTKYNQKFDGKATLTADKSSSTAYMQLSSLTSEDSAVYFCASEEAVISLVYWGQGTLVTVSS", "VL": "MESQTHVLISLLLSVSGTYGDIAITQSPSSVAVSVGETVTLSCKSSQSLLYSENQKDYLGWYQQKPGQTPKPLIYWATNRHTGVPDRFTGSGSGTDFTLIISSVQAEDLADYYCGQYLVYPFTFGPGTKLELK"}}, "key": {"[1]": {"biological_target": "T1, canine PD-1/PD-L1 binding (Canis lupus familiaris, UniProt A0A8I3P7C4)", "T1 construct": "made in house; host or cells: Expi293F", "T1 sequence (A0A8I3P7C4 19-237)": "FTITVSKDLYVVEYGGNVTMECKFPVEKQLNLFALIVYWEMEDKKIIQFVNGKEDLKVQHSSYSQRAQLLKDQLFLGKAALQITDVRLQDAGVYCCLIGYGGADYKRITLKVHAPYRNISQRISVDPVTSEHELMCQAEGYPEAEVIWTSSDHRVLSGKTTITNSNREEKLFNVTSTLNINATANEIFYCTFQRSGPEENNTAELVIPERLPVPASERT", "assay": "Canine PD-1/PD-L1 binding inhibition ELISA (cPD-1-Ig immobilized, biotinylated cPD-L1-Ig)", "conditions": "antibody 0, 2.5, 5 and 10 μg/ml", "method": "Briefly, canine PD-1-Ig (prepared in 2.4 above) was immobilized on flat bottomed 96-well plates and blocked with 1% BSA and 0.05% Tween 20-containing PBS. […] The binding of cPD-L1-Ig to cPD-1-Ig was measured by color reaction using Neutravidin-HRP (Thermo Fisher Scientific) and TMB one component substrate (Bethyl Laboratories).\nBriefly, heavy chain and light chain variable region genes were identified from hybridomas producing rat anti-bovine PD-L1 monoclonal antibodies 4G12 and 6G7. Further, the heavy chain and light chain variable region genes of the above rat antibodies were linked to the constant region of heavy chain IgG4 and the constant region of light chain Lambda of a known canine antibody, respectively, to prepare nucleotide sequences, followed by codon optimization (SEQ ID NOS: 9 and 10 (amino acid sequences), SEQ ID NOS: 19 and 20 (nucleotide sequences after codon optimization). Then, synthesis of genes was performed so that NotI restriction enzyme recognition site. KOZAK sequence, chimeric antibody's light chain sequence, poly-A addition signal sequence (PABGH), promoter sequence (PCMV), SacI restriction enzyme recognition site, intron sequence (INRBG), KOZAK sequence, chimeric antibody's heavy chain sequence and XbaI restriction enzyme recognition site would be located in this order. […]"}, "[2]": {"system": "canine CD80/PD-L1 binding", "assay": "Canine CD80/PD-L1 binding inhibition ELISA (cCD80-Ig immobilized, cPD-L1-Ig)", "conditions": "antibody 0, 2.5, 5 and 10 μg/ml", "method": "Using the canine PD-1-Ig, PD-L1-Ig and CD80-Ig (described above), anti-PD-L1 antibody was tested for its ability to inhibit canine PD-1/PD-L1 binding and CD80/PD-L1 binding. Briefly, canine PD-1-Ig or CD80-Ig was immobilized on flat-bottom 96-well plates."}, "[3]": {"system": "porcine PD-1/PD-L1 binding", "assay": "Porcine PD-1/PD-L1 binding inhibition test (PD-1-EGFP COS-7 cells and PD-L1-Ig)", "conditions": "antibody 0-50 μg/ml, porcine PD-L1-Ig 5 μg/ml", "method": "Using ovine PD-1-EGFP expressing COS-7 cells and ovine PD-L1-Ig recombinant protein, or porcine PD-1-EGFP expressing COS-7 cells and porcine PD-L1-Ig recombinant protein, inhibition of ovine or porcine PD-1/PD-L1 binding by rat anti-bovine PD-L1 antibody […] was tested. […] Subsequently, the antibody 4G12 was reacted with 2×10^5 ovine PD-1-EGFP expressing COS-7 cells or porcine PD-1-EGFP expressing COS-7 cells at 37° C. for 30 min. After washing, ovine PD-L1-Ig or porcine PD-L1-Ig bound to cell surfaces was detected with Alexa Fluor 647-labeled anti-rabbit IgG (H+L) goat F(ab′)2 (Life Technologies). For analysis, FACS Verse (BD Biosciences) was used. As a negative control antibody, rat IgG2a (κ) isotype control (BD Biosciences) was used. Taking the proportion of PD-L1-Ig bound cells without antibody addition as 100%, the proportion of PD-L1-Ig bound cells at each antibody concentration was shown as relative value."}}}
{"molecule": "B1", "values": [{"measurement": "Inhibitory activity against canine PD-1/PD-L1 binding", "setting": "[1]", "value": "reduced the amounts of binding"}, {"measurement": "Inhibitory activity against canine CD80/PD-L1 binding", "setting": "[2]", "value": "reduced the amounts of binding"}, {"measurement": "Inhibition of porcine PD-1/PD-L1 binding", "setting": "[3]", "value": "capable of inhibiting"}]}
